Sequences and labels used below:
B1: H1_L1.71 (antibody, V domains shown)
VH: EVQLLESGGGLVQPGGSLRLSCAASGFTFSSYAMSWVRQAPGKGLEWVSTISGSGDSTYYADSVKGRFTISRDNSKNTLYLQMNSLRAEDTAVYYCAKSGPGLRQVGFDYWGQGTLVTVSS
VL: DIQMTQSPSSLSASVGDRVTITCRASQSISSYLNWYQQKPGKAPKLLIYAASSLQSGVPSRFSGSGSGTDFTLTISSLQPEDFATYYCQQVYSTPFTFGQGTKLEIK
B2: H1.1_L1 (antibody, V domains shown)
VH: EVQLLESGGGLVQPGGSLRLSCAASGFTFSSYYMSWVRQAPGKGLEWVSTISGSGDSTYYADSVKGRFTISRDNSKNTLYLQMNSLRAEDTAVYYCAKSGPGLRQVGFDYWGQGTLVTVSS
VL: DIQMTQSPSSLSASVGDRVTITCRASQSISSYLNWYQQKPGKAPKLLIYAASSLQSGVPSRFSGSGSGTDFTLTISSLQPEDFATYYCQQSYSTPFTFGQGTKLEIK
B3: H1.1_L1.71 (antibody, V domains shown)
VH: EVQLLESGGGLVQPGGSLRLSCAASGFTFSSYYMSWVRQAPGKGLEWVSTISGSGDSTYYADSVKGRFTISRDNSKNTLYLQMNSLRAEDTAVYYCAKSGPGLRQVGFDYWGQGTLVTVSS
VL: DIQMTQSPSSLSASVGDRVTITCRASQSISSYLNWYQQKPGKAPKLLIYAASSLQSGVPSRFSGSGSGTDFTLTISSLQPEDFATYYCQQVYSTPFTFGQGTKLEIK
B4: H1L1 (antibody, V domains shown)
VH: EVQLLESGGGLVQPGGSLRLSCAASGFTFSSYAMSWVRQAPGKGLEWVSTISGSGDSTYYADSVKGRFTISRDNSKNTLYLQMNSLRAEDTAVYYCAKSGPGLRQVGFDYWGQGTLVTVSS
VL: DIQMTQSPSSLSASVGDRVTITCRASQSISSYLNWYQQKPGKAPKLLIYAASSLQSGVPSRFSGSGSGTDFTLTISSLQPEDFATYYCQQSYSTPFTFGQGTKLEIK

What is called Kd is the constant that tells how readily two partners part at equilibrium.

The experiment has as its target human CD28 (human, UniProt P10747 19-220). The experiment is described as follows: -; scFv VHVL, 1+1 Fab-scFv-Fc format.
B1 came in with a Kd of 180 nM. The value for B2 was 600 nM.

As to B3, binding was put at a Kd of 96 nM. The molecule B4 gave a Kd of 1000 nM.

The record behind these values is patent US20250122299A1 (published 2025).
